Consider three substances from paper PMC8985508.

The target of this assay is trastuzumab. The assay is described as follows: fluorescence polarisation. (In general: Polarisation of emitted light reports the rotation of a fluorescent probe.)

As usually defined, the Kd is a measure of binding affinity in units of concentration. Read a high Kd as lower affinity. “Fc-III labeled with fluorescein (Fc-III-FAM) (peptide)” showed a Kd of 14 nM. In other words, the double-digit nanomolar range.
Broadly, the IC50 is the point on the concentration scale where inhibition reaches its midpoint. Fc-III peptide (wild-type Fc-III) came in with an IC50 of 58 nM. This counts as double-digit nanomolar.
As to NH2-PEG20-Fc-III (peptide), the IC50 stood at 91 nM.
